B1: caveolin ligand 5 fused to MBP (designed binder)
chain: YTSLIHSLIEESQNQQEKHEKEIIDIERWASMLQLF
B2: caveolin ligand 4 fused to MBP (designed binder)
chain: YTSLIHSLIEESQNQQEKQEKELMELERWGSMLKCF

Target: T1, cav(1-104), truncated caveolin-1 with intramembrane and C-terminal domains deleted (human, UniProt Q03135 1-104)
T1 sequence (looked up): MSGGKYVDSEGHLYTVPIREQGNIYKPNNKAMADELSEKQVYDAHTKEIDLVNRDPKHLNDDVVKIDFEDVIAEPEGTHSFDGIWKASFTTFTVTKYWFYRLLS
Assay: ITC

Binder	dH1 (first binding site)	dH2 (second binding site)
B1	-26.1 kcal/mol	83.9 kcal/mol
B2	-20.6 kcal/mol	44.8 kcal/mol

Reference: PMC3120933 (Journal of the American Chemical Society, 2011)
